Patent US20200297818A1 (ZEALAND PHARMA A S, published 2020)
Positions count from the first letter of the chain named. *1 amine or outer side, *2 acyl side, *3 side chain or, on linkers, in order; H or OH if unused. Side-chain parts run from the residue outwards. [ ]: non-standard residue; d: D form. The star is where a group is joined. C20 diacid = O=C(O)CCCCCCCCCCCCCCCCCCC(=O)*; C18 diacid = O=C(O)CCCCCCCCCCCCCCCCC(=O)*; γGlu = O=C(O)[C@H](CCC(=O)[*:2])N[*:1]; AEEA = NCCOCCOCC(=O)O; Aib = CC(C)(N)C(=O)O

T1: human GLP-2 receptor (hGLP2-R) (human, UniProt O95838 1-553)
T1 sequence (looked up): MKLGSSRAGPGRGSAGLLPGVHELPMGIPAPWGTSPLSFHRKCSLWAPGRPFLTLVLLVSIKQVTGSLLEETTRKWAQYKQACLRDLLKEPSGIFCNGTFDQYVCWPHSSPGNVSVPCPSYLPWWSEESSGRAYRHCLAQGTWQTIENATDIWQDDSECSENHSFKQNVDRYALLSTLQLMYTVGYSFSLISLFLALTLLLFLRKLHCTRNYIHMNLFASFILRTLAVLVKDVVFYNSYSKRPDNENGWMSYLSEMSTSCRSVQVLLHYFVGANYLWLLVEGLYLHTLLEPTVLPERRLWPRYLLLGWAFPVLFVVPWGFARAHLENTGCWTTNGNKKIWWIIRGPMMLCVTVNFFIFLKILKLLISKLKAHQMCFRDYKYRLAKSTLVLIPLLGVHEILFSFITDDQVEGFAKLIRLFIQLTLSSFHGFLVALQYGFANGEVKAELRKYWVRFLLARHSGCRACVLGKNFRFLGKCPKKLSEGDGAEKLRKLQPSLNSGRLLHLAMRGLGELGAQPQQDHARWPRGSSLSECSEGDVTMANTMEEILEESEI

B1: Compound 1 (peptide)
peptide: HXEGTFSSELATILDXEAARDFIAWLIEHKITD
HELM: PEPTIDE1{H.[Aib].E.G.T.F.S.S.E.L.A.T.I.L.D.K.E.A.A.R.D.F.I.A.W.L.I.E.H.K.I.T.D}|PEPTIDE2{[O=C(O)CCCCCCCCCCCCCCCCC(=O)[*:2]].[gGlu]}$PEPTIDE1,PEPTIDE2,16:R3-2:R2$$$V2.0
SMILES: CC[C@H](C)[C@H](NC(=O)[C@H](Cc1ccccc1)NC(=O)[C@H](CC(=O)O)NC(=O)[C@H](CCCNC(=N)N)NC(=O)[C@H](C)NC(=O)[C@H](C)NC(=O)[C@H](CCC(=O)O)NC(=O)[C@H](CCCCNC(=O)CC[C@H](NC(=O)CCCCCCCCCCCCCCCCC(=O)O)C(=O)O)NC(=O)[C@H](CC(=O)O)NC(=O)[C@H](CC(C)C)NC(=O)[C@@H](NC(=O)[C@@H](NC(=O)[C@H](C)NC(=O)[C@H](CC(C)C)NC(=O)[C@H](CCC(=O)O)NC(=O)[C@H](CO)NC(=O)[C@H](CO)NC(=O)[C@H](Cc1ccccc1)NC(=O)[C@@H](NC(=O)CNC(=O)[C@H](CCC(=O)O)NC(=O)C(C)(C)NC(=O)[C@@H](N)Cc1c[nH]cn1)[C@@H](C)O)[C@@H](C)O)[C@@H](C)CC)C(=O)N[C@@H](C)C(=O)N[C@@H](Cc1c[nH]c2ccccc12)C(=O)N[C@@H](CC(C)C)C(=O)N[C@H](C(=O)N[C@@H](CCC(=O)O)C(=O)N[C@@H](Cc1c[nH]cn1)C(=O)N[C@@H](CCCCN)C(=O)N[C@H](C(=O)N[C@H](C(=O)N[C@@H](CC(=O)O)C(=O)O)[C@@H](C)O)[C@@H](C)CC)[C@@H](C)CC
B2: Compound 2 (peptide)
peptide: B1 peptide with T5S, S7T
HELM: PEPTIDE1{H.[Aib].E.G.S.F.T.S.E.L.A.T.I.L.D.K.E.A.A.R.D.F.I.A.W.L.I.E.H.K.I.T.D}|PEPTIDE2{[O=C(O)CCCCCCCCCCCCCCCCC(=O)[*:2]].[gGlu]}$PEPTIDE1,PEPTIDE2,16:R3-2:R2$$$V2.0
SMILES: CC[C@H](C)[C@H](NC(=O)[C@H](Cc1ccccc1)NC(=O)[C@H](CC(=O)O)NC(=O)[C@H](CCCNC(=N)N)NC(=O)[C@H](C)NC(=O)[C@H](C)NC(=O)[C@H](CCC(=O)O)NC(=O)[C@H](CCCCNC(=O)CC[C@H](NC(=O)CCCCCCCCCCCCCCCCC(=O)O)C(=O)O)NC(=O)[C@H](CC(=O)O)NC(=O)[C@H](CC(C)C)NC(=O)[C@@H](NC(=O)[C@@H](NC(=O)[C@H](C)NC(=O)[C@H](CC(C)C)NC(=O)[C@H](CCC(=O)O)NC(=O)[C@H](CO)NC(=O)[C@@H](NC(=O)[C@H](Cc1ccccc1)NC(=O)[C@H](CO)NC(=O)CNC(=O)[C@H](CCC(=O)O)NC(=O)C(C)(C)NC(=O)[C@@H](N)Cc1c[nH]cn1)[C@@H](C)O)[C@@H](C)O)[C@@H](C)CC)C(=O)N[C@@H](C)C(=O)N[C@@H](Cc1c[nH]c2ccccc12)C(=O)N[C@@H](CC(C)C)C(=O)N[C@H](C(=O)N[C@@H](CCC(=O)O)C(=O)N[C@@H](Cc1c[nH]cn1)C(=O)N[C@@H](CCCCN)C(=O)N[C@H](C(=O)N[C@H](C(=O)N[C@@H](CC(=O)O)C(=O)O)[C@@H](C)O)[C@@H](C)CC)[C@@H](C)CC

target: human glucagon-like peptide 1 receptor (GLP-1 R) (human, UniProt P43220 24-463); assay: cell-based or functional assay

Q: For H-H[Aib]EGSFTSEK([AEEA-AEEA-Lys-Glu-Lys-γGlu-C20 diacid])ATILDEQAARDFIAWLIEHKITD-OH [Compound 55], which “EC50 GLP-1 (nM); cAMP response” value is on record?
A: Its value is 0.11 nM.

Q: B1 was tested. Which “EC50 GLP-1 (nM); cAMP response” value did it give?
A: Its value is 0.63 nM.

Q: Which “EC50 GLP-1 (nM); cAMP response” value does the source give for B2 here?
A: The value was 0.13 nM.

Q: Which “EC50 GLP-1 (nM); cAMP response” value does the source give for H-H[Aib]EGTFSSELATILDK([AEEA-Lys-Glu-Lys-γGlu-C18 diacid])QAARDFIAWLIEHKITD-OH [Compound 49] here?
A: Its value is 0.27 nM.

Q: How did the “EC50 GLP-1 (nM); cAMP response” value turn out when H-H[Aib]EGTFTSELATILDK([AEEA-Lys-Glu-Lys-γGlu-C20 diacid])QAARDFIAWLIQHKITD-OH [Compound 52] was run?
A: The value was 0.02 nM.

Q: With H-H[Aib]EGTFSSELATILDK([AEEA-Lys-Glu-Lys-γGlu-C20 diacid])QAARDFIAWLIEHKITD-OH [Compound 50] as the binder, how does the “EC50 GLP-1 (nM); cAMP response” value read?
A: The value was 0.31 nM.

Q: For H-H[Aib]EGTFSSELATILDK([AEEA-Lys-Glu-Lys-γGlu-C20 diacid])QAARDFIAWLIQHKITD-OH [Compound 48], which “EC50 GLP-1 (nM); cAMP response” value is on record?
A: The value was 0.47 nM.

Q: For H-H[Aib]EGTFTSELATILDK([AEEA-Lys-Glu-Lys-γGlu-C20 diacid])QAARDFIAWLIEHKITD-OH [Compound 56], which “EC50 GLP-1 (nM); cAMP response” value is on record?
A: The value was 0.033 nM.

Q: How did the “EC50 GLP-1 (nM); cAMP response” value turn out when H-H[Aib]EGSFTSELATILDK([AEEA-AEEA-Lys-Glu-Lys-γGlu-C20 diacid])QAARDFIAWLIEHKITD-OH [Compound 60] was run?
A: Its value is 0.097 nM.

Q: Which “EC50 GLP-1 (nM); cAMP response” value does the source give for H-H[Aib]EGTFTSEK([AEEA-Lys-Glu-Lys-γGlu-C20 diacid])ATILDEQAARDFIAWLIEHKITD-OH [Compound 54] here?
A: The value was 0.034 nM.

Q: With H-H[Aib]EGSFTSELATILDK([AEEA-Lys-Glu-Lys-γGlu-C20 diacid])QAARDFIAWLIAHKITD-OH [Compound 58] as the binder, how does the “EC50 GLP-1 (nM); cAMP response” value read?
A: The value was 0.089 nM.

Q: H-H[Aib]EGSFTSEK([AEEA-Lys-Glu-Lys-γGlu-C20 diacid])ATILDEQAARDFIAWLIEHKITD-OH [Compound 53] was tested. Which “EC50 GLP-1 (nM); cAMP response” value did it give?
A: Its value is 0.076 nM.

Q: For H-H[Aib]EGSFTSELATILDK([AEEA-Lys-Glu-Lys-γGlu-C20 diacid])QAARDFIAWLIEHKITD-OH [Compound 57], which “EC50 GLP-1 (nM); cAMP response” value is on record?
A: Its value is 0.093 nM.

Q: With H-H[Aib]EGTFTSELATILDK([Lys-Glu-Lys-γGlu-C20 diacid])QAARDFIAWLIQHKITD-OH [Compound 51] as the binder, how does the “EC50 GLP-1 (nM); cAMP response” value read?
A: Its value is 0.02 nM.

Q: H-H[Aib]EGTFSSELATILDK([AEEA-Lys-Glu-Lys-γGlu-C18 diacid])QAARDFIAWLIQHKITD-OH [Compound 47] was tested. Which “EC50 GLP-1 (nM); cAMP response” value did it give?
A: The value was 0.44 nM.

Q: With H-H[Aib]EGSFTSELATILDK([AEEA-Lys-Glu-Lys-γGlu-C20 diacid])KAARDFIAWLIEHKITD-OH [Compound 59] as the binder, how does the “EC50 GLP-1 (nM); cAMP response” value read?
A: Its value is 0.088 nM.

Q: For HGDGSFSDEMNTILDNLAARDFINWLIQTKITD [Teduglutide], which “EC50 GLP-1 (nM); cAMP response” value is on record?
A: The value was 39 nM.

target: T1, human GLP-2 receptor (hGLP2-R); assay: cell-based or functional assay

Q: Which “EC50 GLP-2 (nM); cAMP response” value does the source give for H-H[Aib]EGSFTSEK([AEEA-AEEA-Lys-Glu-Lys-γGlu-C20 diacid])ATILDEQAARDFIAWLIEHKITD-OH [Compound 55] here?
A: Its value is 0.78 nM.

Q: For B1, which “EC50 GLP-2 (nM); cAMP response” value is on record?
A: The value was 0.35 nM.

Q: How did the “EC50 GLP-2 (nM); cAMP response” value turn out when B2 was run?
A: The value was 0.25 nM.

Q: How did the “EC50 GLP-2 (nM); cAMP response” value turn out when H-H[Aib]EGTFSSELATILDK([AEEA-Lys-Glu-Lys-γGlu-C18 diacid])QAARDFIAWLIEHKITD-OH [Compound 49] was run?
A: Its value is 0.044 nM.

Q: Which “EC50 GLP-2 (nM); cAMP response” value does the source give for H-H[Aib]EGTFTSELATILDK([AEEA-Lys-Glu-Lys-γGlu-C20 diacid])QAARDFIAWLIQHKITD-OH [Compound 52] here?
A: The value was 0.075 nM.

Q: With H-H[Aib]EGTFSSELATILDK([AEEA-Lys-Glu-Lys-γGlu-C20 diacid])QAARDFIAWLIEHKITD-OH [Compound 50] as the binder, how does the “EC50 GLP-2 (nM); cAMP response” value read?
A: Its value is 0.056 nM.

Q: Which “EC50 GLP-2 (nM); cAMP response” value does the source give for H-H[Aib]EGTFSSELATILDK([AEEA-Lys-Glu-Lys-γGlu-C20 diacid])QAARDFIAWLIQHKITD-OH [Compound 48] here?
A: Its value is 0.054 nM.

Q: How did the “EC50 GLP-2 (nM); cAMP response” value turn out when H-H[Aib]EGTFTSELATILDK([AEEA-Lys-Glu-Lys-γGlu-C20 diacid])QAARDFIAWLIEHKITD-OH [Compound 56] was run?
A: The value was 0.076 nM.

Q: How did the “EC50 GLP-2 (nM); cAMP response” value turn out when H-H[Aib]EGSFTSELATILDK([AEEA-AEEA-Lys-Glu-Lys-γGlu-C20 diacid])QAARDFIAWLIEHKITD-OH [Compound 60] was run?
A: The value was 0.074 nM.

Q: For H-H[Aib]EGTFTSEK([AEEA-Lys-Glu-Lys-γGlu-C20 diacid])ATILDEQAARDFIAWLIEHKITD-OH [Compound 54], which “EC50 GLP-2 (nM); cAMP response” value is on record?
A: The value was 0.99 nM.

Q: H-H[Aib]EGSFTSELATILDK([AEEA-Lys-Glu-Lys-γGlu-C20 diacid])QAARDFIAWLIAHKITD-OH [Compound 58] was tested. Which “EC50 GLP-2 (nM); cAMP response” value did it give?
A: The value was 0.09 nM.

Q: How did the “EC50 GLP-2 (nM); cAMP response” value turn out when H-H[Aib]EGSFTSEK([AEEA-Lys-Glu-Lys-γGlu-C20 diacid])ATILDEQAARDFIAWLIEHKITD-OH [Compound 53] was run?
A: The value was 0.24 nM.

Q: How did the “EC50 GLP-2 (nM); cAMP response” value turn out when H-H[Aib]EGSFTSELATILDK([AEEA-Lys-Glu-Lys-γGlu-C20 diacid])QAARDFIAWLIEHKITD-OH [Compound 57] was run?
A: Its value is 0.083 nM.

Q: How did the “EC50 GLP-2 (nM); cAMP response” value turn out when H-H[Aib]EGTFTSELATILDK([Lys-Glu-Lys-γGlu-C20 diacid])QAARDFIAWLIQHKITD-OH [Compound 51] was run?
A: Its value is 0.18 nM.

Q: H-H[Aib]EGTFSSELATILDK([AEEA-Lys-Glu-Lys-γGlu-C18 diacid])QAARDFIAWLIQHKITD-OH [Compound 47] was tested. Which “EC50 GLP-2 (nM); cAMP response” value did it give?
A: Its value is 0.048 nM.

Q: H-H[Aib]EGSFTSELATILDK([AEEA-Lys-Glu-Lys-γGlu-C20 diacid])KAARDFIAWLIEHKITD-OH [Compound 59] was tested. Which “EC50 GLP-2 (nM); cAMP response” value did it give?
A: Its value is 0.11 nM.
